Target: trastuzumab (humanized IgG1 monoclonal antibody) (UniProt P01857-1;P01834 P01857-1:1-330,P01834:1-107)
Assay: covalent conjugation at heavy chain only, at least one per antibody; HEPES pH 8.4, Mg, K, 37 C, 1 day
Details: chain copies: 2
Excerpt: Whether the aptamer brings oxanine close to the amine group of the target protein, enabling proximity-enhanced covalent bond formation, was monitored with SDS-PAGE (protein bands) and electrophoresis (DNA bands).

Chain of trastuzumab (humanized IgG1 monoclonal antibody) (P01857 other isoform, or with tags, fused parts or gaps, chain 1 of 2, other chains not shown): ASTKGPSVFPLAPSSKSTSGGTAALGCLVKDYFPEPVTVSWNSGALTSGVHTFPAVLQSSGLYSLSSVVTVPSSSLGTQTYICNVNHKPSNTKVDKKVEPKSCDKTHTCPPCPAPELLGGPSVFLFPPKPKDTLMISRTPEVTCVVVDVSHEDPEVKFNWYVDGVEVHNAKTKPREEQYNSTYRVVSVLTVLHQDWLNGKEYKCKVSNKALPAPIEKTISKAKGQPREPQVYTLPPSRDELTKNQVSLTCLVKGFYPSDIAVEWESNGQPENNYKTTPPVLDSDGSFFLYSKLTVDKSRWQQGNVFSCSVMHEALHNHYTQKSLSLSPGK

B1: Fc RNA aptamer Apt8-2-oxanine (mixed)
DNA: GGAGGTGCTCCGAAAGGAACTCC
modifications: printed ggAGG[2'-F-rU]Gc[2'-F-rU]ccgaaaGgaa[2'-F-rC][2'-F-rU]cc (lowercase DNA, uppercase RNA); about 10 oxanine nucleotides added at 3' end
- binding result: binds

Source: patent publication US20240424107, “PREPARATION OF SITE-SPECIFIC POLYPEPTIDE CONJUGATES” (POSTECH RESEARCH AND BUSINESS DEVELOPMENT FOUNDATION, published 2024)
